Conditions in all cases: both partners purified
Assay [1] concerns the target T1, GST-tagged USP8 MIT domain (1-142) (human, UniProt P40818 1-142).
T1 construct: Ubiquitin carboxyl-terminal hydrolase 8 (USP8), human, MIT domain, residues 1-142; pETM33 vector, synthesized by GenScript; source: E. coli BL21-Gold (DE3), purified (glutathione sepharose, eluted with reduced glutathione)
T1 sequence (looked up): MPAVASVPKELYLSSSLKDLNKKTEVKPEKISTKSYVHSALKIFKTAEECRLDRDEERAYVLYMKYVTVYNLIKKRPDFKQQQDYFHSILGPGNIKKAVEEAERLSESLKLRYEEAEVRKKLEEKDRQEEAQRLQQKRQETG
Description: peptide or protein array; SPOT array, cellulose-bound peptides; GST-tagged MIT domain 100 µM in 5% skim milk in TBST overnight at 4 °C; detected with HRP-conjugated anti-GST antibody.

In assay [2] the target is T2, USP8 rhodanese domain (174-317), GST tag cleaved (human, UniProt P40818 174-317).
T2 construct: Ubiquitin carboxyl-terminal hydrolase 8 (USP8), human, rhodanese domain, residues 174-317; also called Rhod domain; source: E. coli BL21-Gold (DE3), purified (glutathione sepharose, GST cleaved on beads with HRV 3C protease)
T2 sequence (looked up): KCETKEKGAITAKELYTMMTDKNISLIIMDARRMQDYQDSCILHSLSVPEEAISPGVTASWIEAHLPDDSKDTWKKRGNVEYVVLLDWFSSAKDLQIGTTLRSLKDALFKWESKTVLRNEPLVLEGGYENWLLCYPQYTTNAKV
Description: fluorescence polarisation; competitive: 1.5 µM protein preincubated with 10 nM FITC-labeled peptide, displaced by increasing concentration of unlabeled peptide; 50 mM sodium phosphate pH 7.4, 1 mM DTT. (In general: In fluorescence polarisation assays a small probe gives low polarisation when free and higher when bound to something large.)

The target in assay [3] is T3, GST-tagged USP8 rhodanese domain (174-317) (human, UniProt P40818 174-317).
T3 construct: Ubiquitin carboxyl-terminal hydrolase 8 (USP8), human, rhodanese domain, residues 174-317; pETM33 vector, synthesized by GenScript; also called Rhod domain; source: E. coli BL21-Gold (DE3), purified (glutathione sepharose, eluted with reduced glutathione)
T3 sequence (looked up): T2 sequence (looked up)
Briefly: peptide or protein array; SPOT array, cellulose-bound peptides; GST-tagged Rhodanese domain 150 µM in 5% skim milk in TBST overnight at 4 °C; detected with HRP-conjugated anti-GST antibody.

A further assay concerns the target T4, USP8 Rhod (174–317) (human, UniProt P40818 174-317).
T4 construct: Ubiquitin carboxyl-terminal hydrolase 8 (USP8), human, UniProt P40818, rhodanese domain, residues 174-317; Construct in the pETM33 vector, synthesized by GenScript; also called USP8_Rhodanese; USP8 rhodanese domain; source: E. coli BL21-Gold (DE3), purified (GSH sepharose)
T4 sequence (looked up): T2 sequence (looked up)
Briefly: fluorescence polarisation; direct binding: constant concentration of FITC-labeled peptide, increasing concentration of the protein; 50 mM sodium phosphate buffer pH 7.4, 1 mM DTT; KD from a fit to a quadratic equation.

Ends that are not written are not given here. * marks the point of attachment. FITC = O=C1OC2(c3ccc(O)cc3Oc3cc(O)ccc32)c2ccc(NC(=S)*)cc21

B1: DBP 116-131 peptide, cellulose-bound (SPOT array) (peptide)
peptide: YVDLDAFLLEHGLPPS
notes: also called positive control; source: array of predicted peptides: JPT Peptide Technologies
B1: the binding result in assay [1] was “binds”.

B2: KIAA1614 568-583 peptide, synthetic (peptide)
peptide: GMERVLGGLSSPLRLL
notes: also called positive control; source: JPT Peptide Technologies; free, unlabelled for fluorescence polarisation (GeneCust, >95% purity)
For the molecule B2, in assay [2], binding was characterised by a dissociation constant (Kd) of 10 ± 2 µM.

B3: Tumour protein 63 608-622 peptide, cellulose-bound (SPOT array) (peptide, UniProt Q9H3D4 608-622, looked up)
peptide: HEFSSPSHLLRTPSS
notes: holds an SSPxxL[LM] motif; source: alanine scan: INTAVIS
Regarding B3, the binding result in assay [3] is given as “binds”.

B4: FITC-TET3 1705-1720 peptide (Methylcytosine dioxygenase TET3) (peptide)
peptide: {FITC}-GLALWEAKMKQLAERA
notes: also called probe peptide; source: synthetic peptide, bought: GeneCust (France), > 95% purity
As for B4, the Kd (in general, the equilibrium constant for the complex coming apart) in the assay with USP8 Rhod (174–317) worked out at 0.7 µM.

B5: Cadherin-1 863-877 peptide, cellulose-bound (SPOT array) (peptide, UniProt P12830 863-877, looked up)
peptide: NEWGNRFKKLADMYG
notes: cadherin-1 (CDH1), residues 863-877; holds an RFxxL motif; also called CDH1_(863 − 877); source: alanine scan: INTAVIS
Turning to B5, the binding result in assay [1] is “binds”.

B6: TET3 1705-1720 peptide, unlabelled, synthetic (peptide)
peptide: GLALWEAKMKQLAERA
notes: source: synthetic peptide (GeneCust, >95% purity)
B6 returned a Kd in assay [2] of 33 ± 9 µM.

B7: DNAJB6 118-130 peptide, cellulose-bound (SPOT array) (peptide, UniProt O75190 118-130, looked up)
peptide: PFEDFFGNRRGPR
notes: DnaJ homolog subfamily B member 6 (DNAJB6), residues 118-130; holds a partial DFx{2,3}R motif; also called DnaJ homolog subfamily B member 6; source: alanine scan: INTAVIS
Regarding B7, the binding result in assay [1] is “binds”.

B8: Keratin-85 41-55 peptide, cellulose-bound (SPOT array) (peptide, UniProt P78386 41-55, looked up)
peptide: GVSCYRGLTGFGSRS
notes: Keratin-85 (KRT85), residues 41-55; holds an Rx[LI]xG motif; also called KRT85_(41 − 55); source: bought: JPT Peptide Technologies, cellulose membrane
B8: the binding result in assay [3] was “binds”.

The record behind these values is publication PMC12057046, “Elucidation of short linear motif-based interactions of the MIT and rhodanese domains of the ubiquitin-specific protease 8” (Biology Direct, 2025).
